Assay results published in US6855515B1, “Autoantigenic fragments, methods and assays” (Merck & Co., Inc., priority 1998, dated 2005).

Target: T1, granzyme B (Homo sapiens, UniProt P10144)
T1 construct: Some of these preparations were used for the further purification of granzyme B (Tschopp, 1994); endogenous in cells; host or cells: YT cells (human NK cell line), cytoplasmic granules
Assay: In vitro cleavage of substrates by purified granzyme B, kcat/Km from densitometry
Assay type: biochemical
Conditions: ratio of kcat/Km
Method: cDNAs for caspase-3, caspase-7, NuMA and PARP were used to drive the synthesis of [^35S]methionine-labeled proteins by coupled transcription/translation in rabbit reticulocyte lysates. For all purified substrates, cleavage reactions were performed in buffer consisting of 50 mM Hepes pH 7.4, 10% sucrose and 5 mM DTT in the presence of the granzyme B concentrations indicated in FIG. 1. After incubation at 37° C. for 15 min, reactions were terminated and samples were electrophoresed on 10% (DNA-PKcs, NuMA), 12% (PARP) or 15% (caspases 3 and 7) SDS-polyacrylamide gels. Radiolabeled proteins and their fragments were visualized by fluorography. Intact and cleaved DNA-PKcs were visualized by immunoblotting with monoclonal antibody 18-2 (Casciola-Rosen et al., 1995).
Catalytic constant (kcat/km) values were calculated essentially as described (Casciola-Rosen et al., 1996). Briefly, subsaturating substrate concentrations were used in each in vitro reaction, and product appearance was assumed to be a first order process. […] Several appropriate densitometry systems are available, e.g. PDI Discovery System, with Quantity One Software, Protein Databases, Inc., (Huntington Station, N.Y.). kcat/Km values were calculated by fitting the dose-response data to the first order rate equation: percent substrate cleavage=100*((1^-e-((kcat*[E]/Km)*time)). […]

T1 sequence (P10144 21-247): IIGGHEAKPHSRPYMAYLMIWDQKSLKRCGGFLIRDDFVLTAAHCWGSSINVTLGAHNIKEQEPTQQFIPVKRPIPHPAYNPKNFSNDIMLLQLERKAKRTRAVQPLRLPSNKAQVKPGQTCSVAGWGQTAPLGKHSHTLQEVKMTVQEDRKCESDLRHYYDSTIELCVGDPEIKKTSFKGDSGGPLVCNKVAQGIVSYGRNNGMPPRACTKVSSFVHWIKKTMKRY

B1: Caspase-7: precursor of caspase-7 used as substrate for granzyme B (protein, UniProt P55210 2-303, looked up)
pro-form: ADDQGCIEEQGVEDSANEDSVDAKPDRSSFVPSLFSKKKKNVTMRSIKTTRDRVPTYQYNMNFEKLGKCIIINNKNFDKVTGMGVRNGTDKDAEALFKCFRSLGFDVIVYNDCSCAKMQDLLKKASEEDHTNAACFACILLSHGEENVIYGKDGVTPIKDLTAHFRGDRCKTLLEKPKLFFIQACRGTELDDGIQADSGPINDTDANPRYKIPVEADFLFAYSTVPGYYSWRSPGRGSWFVQALCSILEEHGKDLEIMQILTRVNDRVARHFESQSDDPHFHEKKQIPCVVSMLTKELYFSQ
modifications: pro-form
notes: precursor of caspase-7 used as substrate for granzyme B
  efficiency of granzyme B cleavage relative to caspase-3 precursor: approximately 6 fold
